# Laboratory results: article PMC11672308
# How the values were obtained:
# [1] = IF staining, 293T; details: glycan lost; control: GLUT1-WT
# [2] = IF co-staining, Ishikawa cells; details: glycan changed form; control: shC with GAL9 overexpression
protein,measurement,setting,value
GLUT1: N45D (protein) parent chain: MEPSSKKLTGRLMLAVGGAVLGSLQFGYNTGVINAPQKVIEEFYNQTWVHRYGESILPTTLTTLWSLSVAIFSVGGMIGSFSVGLFVNRFGRRNSMLMMNLLAFVSAVLMGFSKLGKSFEMLILGRFIIGVYCGLTTGFVPMYVGEVSPTALRGALGTLHQLGIVVGILIAQVFGLDSIMGNKDLWPLLLSIIFIPALLQCIVLPFCPESPRFLLINRNEENRAKSVLKKLRGTADVTHDLQEMKEESRQMMREKKVTILELFRSPAYRQPILIAVVLQLSQQLSGINAVFYYSTSIFEKAGVQQPVYATIGSGIVNTAFTVVSLFVVERAGRRTLHLIGLAGMAGCAILMTIALALLEQLPWMSYLSIVAIFGFVAFFEVGPGPIPWFIVAELFSQGPRPAAIAVAGFSNWTSNFIVGMCFQYVEQLCGPYVFIIFTVLLVLFFIFTYFKVPETKGRTFDEIASGFRQGGASQSDKTPEELFHPLGADSQV,localisation_or_trafficking,[1],decreases
GLUT1: MGAT4A knockdown (protein) parent chain: MEPSSKKLTGRLMLAVGGAVLGSLQFGYNTGVINAPQKVIEEFYNQTWVHRYGESILPTTLTTLWSLSVAIFSVGGMIGSFSVGLFVNRFGRRNSMLMMNLLAFVSAVLMGFSKLGKSFEMLILGRFIIGVYCGLTTGFVPMYVGEVSPTALRGALGTLHQLGIVVGILIAQVFGLDSIMGNKDLWPLLLSIIFIPALLQCIVLPFCPESPRFLLINRNEENRAKSVLKKLRGTADVTHDLQEMKEESRQMMREKKVTILELFRSPAYRQPILIAVVLQLSQQLSGINAVFYYSTSIFEKAGVQQPVYATIGSGIVNTAFTVVSLFVVERAGRRTLHLIGLAGMAGCAILMTIALALLEQLPWMSYLSIVAIFGFVAFFEVGPGPIPWFIVAELFSQGPRPAAIAVAGFSNWTSNFIVGMCFQYVEQLCGPYVFIIFTVLLVLFFIFTYFKVPETKGRTFDEIASGFRQGGASQSDKTPEELFHPLGADSQV,localisation_or_trafficking,[2],decreases
